Molecular target: T1, MBP-AMPK (Rattus norvegicus, UniProt P54645)
T1 construct: MBP-AMPKa (1-312) bacterial fusion protein
Experiment: AMPK kinase activity on SAMS peptide after in vitro phosphorylation by LKB1
Format: biochemical
Conditions: in vitro phosphorylation of bacterial MBP-AMPK, SAMS peptide substrate
Method: FIG. 2a: Lineup of known LKB1 in vitro phosphorylation sites with sites of phosphorylation in human […] and its yeast homologue SNF1p. AMPKα1 Thr 172 (SEQ ID NO:1); SNF1p S.c. Thr 210 (SEQ ID NO:2); STRAD Thr 329 (SEQ ID NO:3); STRAD Thr 419 (SEQ ID NO:4); LKB1 auto Thr 185 (SEQ ID NO:5). FIG. 2b. HT1080 cells were transfected with wild-type or kinase dead (K78I) LKB1 with or without its coactivating protein STRAD. As indicated, LKB1 immunoprecipitations (IPs) were tested for their ability to transphosphorylate bacterial MBP-AMPKα in an in vitro kinase assay. Parallel in vitro kinase assays were performed using ^32P γ-ATP followed by autoradiography or cold ATP followed by immunoblotting for phospho-Thr172 AMPK and the indicated proteins. Wild-type LKB1 IPs were run in duplicate as shown. MBP-AMPK was also tested alone as indicated. Results are typical of 3 separate experiments. FIG. 2c: LKB1 phosphorylation of MBP-AMPK activates its kinase activity towards a peptide substrate (SAMS). LKB1 immunoprecipitates (as in FIG. 2a) were used to phosphorylate MBP-AMPK in vitro and then MBP-AMPK was removed and tested for its ability to trans-phosphorylate the SAMS peptide in the presence of ^32P γ-ATP. Results were performed in two separate experiments in triplicate. LKB1 alone was incapable of detectably phosphorylating the SAMS peptide, and equivalent levels of LKB1 and MBP-AMPK were used in each reaction (data not shown). Samples without LKB1, without SAMS peptide, or without MBP-AMPK all gave similar levels of background (data not shown).
Kinase Assays and Cellular Analysis: AMPK kinase activity was measured using the SAMS peptide as previously described (7). LKB1 phosphorylation of AMPK was carried out in kinase buffer (50 mM Tris pH 7.5, 10 mM MgCl2, 1 mM DTT, 100 μM ATP) for 20 mins at 30° C. For immunopreciptations of active LKB1 kinase, Flag-tagged LKB1 was co-transfected with an equimolar amount of STRAD expression plasmid into HT1080 cells and immunoprecipitated using M2-agarose (Sigma) 24 h post-transfection in NP40 lysis buffer26. […]

T1 sequence (P54645 13-323): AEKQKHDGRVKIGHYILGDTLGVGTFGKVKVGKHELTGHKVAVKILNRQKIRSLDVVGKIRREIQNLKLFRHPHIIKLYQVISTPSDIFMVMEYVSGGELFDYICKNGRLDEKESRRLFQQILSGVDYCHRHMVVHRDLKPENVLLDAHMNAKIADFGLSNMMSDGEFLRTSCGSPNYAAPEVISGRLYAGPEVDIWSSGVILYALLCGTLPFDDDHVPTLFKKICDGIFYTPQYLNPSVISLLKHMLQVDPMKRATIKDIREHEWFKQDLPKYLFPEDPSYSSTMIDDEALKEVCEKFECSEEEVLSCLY

| Molecule | induced AMPK kinase activity |
| --- | --- |
| wild-type LKB1: Flag-tagged wild-type LKB1 serine/threonine kinase immunoprecipitated from HT1080 cells (protein, left off: small tags and cut ends, Flag-tagged wild-type LKB1 serine/threonine kinase immunoprecipitated from HT1080 cells) MEVVDPQQLGMFTEGELMSVGMDTFIHRIDSTEVIYQPRRKRAKLIGKYLMGDLLGEGSYGKVKEVLDSETLCRRAVKILKKKKLRRIPNGEANVKKEIQLLRRLRHKNVIQLVDVLYNEEKQKMYMVMEYCVCGMQEMLDSVPEKRFPVCQAHGYFCQLIDGLEYLHSQGIVHKDIKPGNLLLTTGGTLKISDLGVAEALHPFAADDTCRTSQGSPAFQPPEIANGLDTFSGFKVDIWSAGVTLYNITTGLYPFEGDNIYKLFENIGKGSYAIPGDCGPPLSDLLKGMLEYEPAKRFSIRQIRQHSWFRKKHPPAEAPVPIPPSPDTKDRWRSMTVVPYLEDLHGADEDEDLFDIEDDIIYTQDFTVPGQVPEEEASHNGQRRGLPKAVCMNGTEAAQLSTKSRAEGRAPNPARKACSASSKIRRLSACKQQ | 27 fold |
| Kinase-inactive LKB1: kinase-dead LKB1 mutant, alone or coexpressed with STRAD (protein, left off: small tags and cut ends, kinase-dead LKB1 mutant, alone or coexpressed with STRAD) MEVVDPQQLGMFTEGELMSVGMDTFIHRIDSTEVIYQPRRKRAKLIGKYLMGDLLGEGSYGKVKEVLDSETLCRRAVIILKKKKLRRIPNGEANVKKEIQLLRRLRHKNVIQLVDVLYNEEKQKMYMVMEYCVCGMQEMLDSVPEKRFPVCQAHGYFCQLIDGLEYLHSQGIVHKDIKPGNLLLTTGGTLKISDLGVAEALHPFAADDTCRTSQGSPAFQPPEIANGLDTFSGFKVDIWSAGVTLYNITTGLYPFEGDNIYKLFENIGKGSYAIPGDCGPPLSDLLKGMLEYEPAKRFSIRQIRQHSWFRKKHPPAEAPVPIPPSPDTKDRWRSMTVVPYLEDLHGADEDEDLFDIEDDIIYTQDFTVPGQVPEEEASHNGQRRGLPKAVCMNGTEAAQLSTKSRAEGRAPNPARKACSASSKIRRLSACKQQ | unable to activate AMPK |
| STRAD-activated LKB1: wild-type LKB1 co-expressed with its coactivating protein STRAD, immunoprecipitated (protein, left off: small tags and cut ends) chain 1: MEVVDPQQLGMFTEGELMSVGMDTFIHRIDSTEVIYQPRRKRAKLIGKYLMGDLLGEGSYGKVKEVLDSETLCRRAVKILKKKKLRRIPNGEANVKKEIQLLRRLRHKNVIQLVDVLYNEEKQKMYMVMEYCVCGMQEMLDSVPEKRFPVCQAHGYFCQLIDGLEYLHSQGIVHKDIKPGNLLLTTGGTLKISDLGVAEALHPFAADDTCRTSQGSPAFQPPEIANGLDTFSGFKVDIWSAGVTLYNITTGLYPFEGDNIYKLFENIGKGSYAIPGDCGPPLSDLLKGMLEYEPAKRFSIRQIRQHSWFRKKHPPAEAPVPIPPSPDTKDRWRSMTVVPYLEDLHGADEDEDLFDIEDDIIYTQDFTVPGQVPEEEASHNGQRRGLPKAVCMNGTEAAQLSTKSRAEGRAPNPARKACSASSKIRRLSACKQQ chain 2: MSFLVSKPERIRRWVSEKFIVEGLRDLELFGEQPPGDTRRKTNDASSESIASFSKQEVMSSFLPEGGCYELLTVIGKGFEDLMTVNLARYKPTGEYVTVRRINLEACSNEMVTFLQGELHVSKLFNHPNIVPYRATFIADNELWVVTSFMAYGSAKDLICTHFMDGMNELAIAYILQGVLKALDYIHHMGYVHRSVKASHILISVDGKVYLSGLRSNLSMISHGQRQRVVHDFPKYSVKVLPWLSPEVLQQNLQGYDAKSDIYSVGITACELANGHVPFKDMPATQMLLEKLNGTVPCLLDTSTIPAEELTMSPSRSVANSGLSDSLTTSTPRPSNGDSPSHPYHRTFSPHFHHFVEQCLQRNPDARPSASTLLNHSFFKQIKRRASEALPELLRPVTPITNFEGSQSQDHSGIFGLVTNLEELEVDDWEF | 50 fold |

Source: US20120122991A1, “METHOD FOR TREATING CANCER BY INCREASING AMP-ACTIVATED KINASE ACTIVITY” (Dana-Farber Cancer Institute, Inc., priority 2003, published 2012)
